How the values were obtained:
PP2A–B55 [1] = assay: Fluorescent phosphatase assay with OMFP substrate; format: biochemical, human; details: three independent biological replicates
Method: We noted that the buffer condition we used in our assay (50 mM Tris [pH 7.5], 50 mM NaCl, 5 mM MgCl2, and 0.1 mM EDTA) is substantially different from that used by Padi et al. (30 mM Hepes [pH 7.0], 150 mM NaCl, 1 mM MnCl2, 1 mM DTT, 0.01% Triton X-100, and 0.1 mg/ml bovine serum albumin) ([46], [84]).
Figure 5 Eya3 NTD and B55i inhibit the phosphatase activity of PP2A–B55.A, the phosphatase activity of PP2A–B55 in the absence and presence of Eya3 NTD in a fluorescent phosphatase assay using OMFP as a substrate under our previous buffer conditions ([46]). […] RFU, relative fluorescence units; NTD, N-terminal domain; OMFP, 3-O-methylfluorescein phosphate. […]
FLAG-PP2A–B55 was expressed and purified from cells transfected with pCAG-FLAG-B55, using the same method as FLAG-hEya3. […] Proteins were analyzed by SDS-PAGE, and fractions containing the PP2A–B55α holoenzyme were pooled, concentrated, aliquoted, and stored at −80 °C.
PP2A–B55 holoenzyme (25 nM) with or without 1 μM Eya3 NTD in 30 mM Hepes (pH 7.0), 150 mM NaCl, 1 mM MnCl2, 1 mM DTT, 0.01% Triton X-100, 0.1 mg/ml bovine serum albumin was incubated at room temperature for 10 min. […] Fluorescent OMFP, corresponding to phosphatase activity, was read using a BioTek Synergy H1 plate reader (excitation at 485 nm and emission at 515 nm).

B55α (His-B55) = assay: Microscale thermophoresis (MST) binding of Eya3 to labeled His-B55; design: species or system human; details: fluorescently labeled His-B55, vs Eya3 WT
Text: We expressed and purified Eya3 protein from Escherichia coli and the His-B55α subunit from insect cells (Fig. S1). In the remainder of the article, we will use B55 to represent B55α for simplicity and PP2A–B55 to represent the holoenzyme containing the A, B55, and C subunits. We labeled His-B55 with the RED–Tris–NTA dye and carried out microscale thermophoresis (MST) experiments with increasing concentrations of Eya3.
The modeled Eya3 peptide (residues 65–86) interacts mostly with residues on blades 3 and 4 of the β-propeller on the B55 surface (including residues on the β2D and β3A loop, β3B and β3C loop, and β3D and β4A loop) and with residues on the α1 and α2 helix positioned above blade 5, as well as the α2 and β6A loop (Fig. 1F). In particular, residue H79^Eya3 forms pi–pi or pi–cation stacking with H179^B55 and a hydrogen bond with D197^B55 (Fig. 2A). […] Furthermore, Y77^Eya3 forms a hydrogen bond with the main chain carbonyl of L225^B55, and K75^Eya3 forms another hydrogen bond with Y337^B55 (Fig. 2, B and C). […] We expressed and purified Eya3 K75A, Y77A, and H79A mutant proteins from E. coli and carried out MST experiments with fluorescently labeled His-B55. […] While we were working on the structure of PP2A–B55 + Eya3, Padi et al. ([84]) published the cryo-EM structure of PP2A–B55 in complex with an Eya3 peptide (residues 62–108) on bioRxiv.
FLAG-hB55, FLAG-hEya3, GFP, and GFP-B55i were cloned into the pCAG vector; (GST)-mEya3 was cloned into pGEX-6p1; His-hB56γ1 was cloned into pGEX-4T1; and His-hB55 was cloned in pFASTbac, all using the NEBuilder HiFi DNA Assembly Cloning Kit (New England Biolabs). h and m represent human and mouse proteins, respectively.
GST-mEya3 and mutants were expressed in BL21 cells. Cells were lysed in lysis buffer containing 50 mM Tris (pH 7.5), 250 mM NaCl, 5% glycerol, 1 mM DTT, and protease inhibitor cocktail (PIC; Thermo Scientific). Lysis was done in ice with sonication using 4 × 45 s pulses with 2-min off periods. NaCl was brought up to 0.5 M using 5 M NaCl, and the lysate was centrifuged for 40 min at 18,000g. Supernatant was gravity-flown over glutathione resin twice. Resin was washed with 100 ml of lysis buffer. GST was cleaved with PreScission protease and eluted into lysis buffer. Eluates were pooled and concentrated with Amicon Ultra Centrifugal filters. Concentrated protein was separated on a pre-equilibrated S200 column for size-exclusion chromatography. Peaks were combined, concentrated again, aliquoted, and stored at −80 °C.
His-B55 was expressed in Hi5 cells. […]
His-B55 or His-B56γ1 labeled with […] (NanoTemper) was added to serial dilutions of mEya3 in PBS with 0.05% Tween-20. The samples were then read with a Monolith NT.115^Pico (NanoTemper) according to the manufacturer’s instructions.

[2] = tested on: apparent S/T phosphatase activity of Eya3; details: Eya3 mutant; cited from earlier work
Text: The modeled Eya3 peptide (residues 65–86) interacts mostly with residues on blades 3 and 4 of the β-propeller on the B55 surface (including residues on the β2D and β3A loop, β3B and β3C loop, and β3D and β4A loop) and with residues on the α1 and α2 helix positioned above blade 5, as well as the α2 and β6A loop (Fig. 1F). In particular, residue H79^Eya3 forms pi–pi or pi–cation stacking with H179^B55 and a hydrogen bond with D197^B55 (Fig. 2A). […] Furthermore, Y77^Eya3 forms a hydrogen bon ...

PP2A–B55 [3] = details: 6,8-difluoro-4-methylumbelliferyl phosphate substrate; cited from earlier work
Text: It is not surprising that ARPP19 and FAM122A inhibit the PP2A–B55 phosphatase activity since these two proteins bind on the surface of both B55 and C subunits, blocking access to the active site on C subunit.

Row | Molecule | binding between Eya3 and B55 (mutants) (B55α (His-B55)) | phosphatase activity of PP2A–B55 in vitro (PP2A–B55 [3]) | further results
1 | Eya3 NTD: Eya3 N-terminal domain protein (NTD, residues 1–250) (protein, UniProt Q99504 1-250, looked up, fragment) MEEEQDLPEQPVKKAKMQESGEQTISQVSNPDVSDQKPETSSLASNLPMSEEIMTCTDYIPRSSNDYTSQMYSAKPYAHILSVPVSETAYPGQTQYQTLQQTQPYAVYPQATQTYGLPPFGALWPGMKPESGLIQTPSPSQHSVLTCTTGLTTSQPSPAHYSYPIQASSTNASLISTSSTIANIPAAAVASISNQDYPTYTILGQNQYQACYPSSSFGVTGQTNSDAESTTLAATTYQSEKPSVMAPAPA | – | – | phosphatase activity of PP2A–B55 (Padi et al. buffer) (PP2A–B55 [1]; 25 nM PP2A–B55, 1 μM Eya3 NTD, 30 mM Hepes (pH 7.0), 150 mM NaCl, 1 mM MnCl2, 1 mM DTT, 0.01% Triton X-100, 0.1 mg/ml BSA, room temperature 10 min, then 37 °C 30 min, ex 485/em 515 nm): inhibits the phosphatase activity of PP2A–B55; phosphatase activity of PP2A–B55 (previous buffer) (PP2A–B55 [1]; buffer 50 mM Tris [pH 7.5], 50 mM NaCl, 5 mM MgCl2, 0.1 mM EDTA, with vs without Eya3 NTD): increases the phosphatase activity of PP2A–B55
2 | K75A: Eya3 K75A mutant protein from E. coli (protein, UniProt Q99504 1-573, looked up, variant K75A) Protein phosphatase EYA3: MEEEQDLPEQPVKKAKMQESGEQTISQVSNPDVSDQKPETSSLASNLPMSEEIMTCTDYIPRSSNDYTSQMYSAAPYAHILSVPVSETAYPGQTQYQTLQQTQPYAVYPQATQTYGLPPFGALWPGMKPESGLIQTPSPSQHSVLTCTTGLTTSQPSPAHYSYPIQASSTNASLISTSSTIANIPAAAVASISNQDYPTYTILGQNQYQACYPSSSFGVTGQTNSDAESTTLAATTYQSEKPSVMAPAPAAQRLSSGDPSTSPSLSQTTPSKDTDDQSRKNMTSKNRGKRKADATSSQDSELERVFLWDLDETIIIFHSLLTGSYAQKYGKDPTVVIGSGLTMEEMIFEVADTHLFFNDLEECDQVHVEDVASDDNGQDLSNYSFSTDGFSGSGGSGSHGSSVGVQGGVDWMRKLAFRYRKVREIYDKHKSNVGGLLSPQRKEALQRLRAEIEVLTDSWLGTALKSLLLIQSRKNCVNVLITTTQLVPALAKVLLYGLGEIFPIENIYSATKIGKESCFERIVSRFGKKVTYVVIGDGRDEEIAAKQHNMPFWRITNHGDLVSLHQALELDFL | significantly reduce the binding between Eya3 and B55 | – | –
3 | Y77A: Eya3 Y77A mutant protein from E. coli (protein, UniProt Q99504 1-573, looked up, variant Y77A) Protein phosphatase EYA3: MEEEQDLPEQPVKKAKMQESGEQTISQVSNPDVSDQKPETSSLASNLPMSEEIMTCTDYIPRSSNDYTSQMYSAKPAAHILSVPVSETAYPGQTQYQTLQQTQPYAVYPQATQTYGLPPFGALWPGMKPESGLIQTPSPSQHSVLTCTTGLTTSQPSPAHYSYPIQASSTNASLISTSSTIANIPAAAVASISNQDYPTYTILGQNQYQACYPSSSFGVTGQTNSDAESTTLAATTYQSEKPSVMAPAPAAQRLSSGDPSTSPSLSQTTPSKDTDDQSRKNMTSKNRGKRKADATSSQDSELERVFLWDLDETIIIFHSLLTGSYAQKYGKDPTVVIGSGLTMEEMIFEVADTHLFFNDLEECDQVHVEDVASDDNGQDLSNYSFSTDGFSGSGGSGSHGSSVGVQGGVDWMRKLAFRYRKVREIYDKHKSNVGGLLSPQRKEALQRLRAEIEVLTDSWLGTALKSLLLIQSRKNCVNVLITTTQLVPALAKVLLYGLGEIFPIENIYSATKIGKESCFERIVSRFGKKVTYVVIGDGRDEEIAAKQHNMPFWRITNHGDLVSLHQALELDFL | significantly reduce the binding between Eya3 and B55 | – | apparent S/T phosphatase activity of Eya3 [2]: abolish the apparent S/T phosphatase activity of Eya3
4 | FAM122A: a protein inhibitor that binds to both the B and C subunits (protein, UniProt Q96E09 1-287, looked up) PPP2R1A-PPP2R2A-interacting …: MAQEKMELDLELPPGTGGSPAEGGGSGGGGGLRRSNSAPLIHGLSDTSPVFQAEAPSARRNSTTFPSRHGLLLPASPVRMHSSRLHQIKQEEGMDLINRETVHEREVQTAMQISHSWEESFSLSDNDVEKSASPKRIDFIPVSPAPSPTRGIGKQCFSPSLQSFVSSNGLPPSPIPSPTTRFTTRRSQSPINCIRPSVLGPLKRKCEMETEYQPKRFFQGITNMLSSDVAQLSDPGVCVSSDTLDGNSSSAGSSCNSPAKVSTTTDSPVSPAQAASPFIPLDELSSK | – | inhibit the phosphatase activity of PP2A–B55 in vitro | –
5 | ARPP19: a protein inhibitor that binds to both the B and C subunits (protein, UniProt P56211 2-112, looked up) cAMP-regulated phosphoprotein …: SAEVPEAASAEEQKEMEDKVTSPEKAEEAKLKARYPHLGQKPGGSDFLRKRLQKGQKYFDSGDYNMAKAKMKNKQLPTAAPDKTEVTGDHIPTPQDLPQRKPSLVASKLAG | – | inhibit the phosphatase activity of PP2A–B55 in vitro | –

Source: paper PMC12246617, “Cryo-EM structures reveal the PP2A–B55α and Eya3 interaction that can be disrupted by a peptide inhibitor” (The Journal of Biological Chemistry, 2025)
